Measured values reported in patent publication US20260098059A1 (ENDOMET BIOSCIENCES, published 2026).
“And” between values parts separate entries of the source, which are not always exact repeats. Identical values can stand only once. Bridges are numbered along the chain shown (N, C = ends). [ ]: non-standard residue; d: D form. N3 = N-terminal azide group, clicked with Pra; Pra = C#CC[C@H](N)C(=O)O; Sar = CNCC(=O)O

T1: β-catenin (UniProt P35222 134-665, limits assumed, biotinylated in the SPR and plate assays)
T1 sequence (looked up): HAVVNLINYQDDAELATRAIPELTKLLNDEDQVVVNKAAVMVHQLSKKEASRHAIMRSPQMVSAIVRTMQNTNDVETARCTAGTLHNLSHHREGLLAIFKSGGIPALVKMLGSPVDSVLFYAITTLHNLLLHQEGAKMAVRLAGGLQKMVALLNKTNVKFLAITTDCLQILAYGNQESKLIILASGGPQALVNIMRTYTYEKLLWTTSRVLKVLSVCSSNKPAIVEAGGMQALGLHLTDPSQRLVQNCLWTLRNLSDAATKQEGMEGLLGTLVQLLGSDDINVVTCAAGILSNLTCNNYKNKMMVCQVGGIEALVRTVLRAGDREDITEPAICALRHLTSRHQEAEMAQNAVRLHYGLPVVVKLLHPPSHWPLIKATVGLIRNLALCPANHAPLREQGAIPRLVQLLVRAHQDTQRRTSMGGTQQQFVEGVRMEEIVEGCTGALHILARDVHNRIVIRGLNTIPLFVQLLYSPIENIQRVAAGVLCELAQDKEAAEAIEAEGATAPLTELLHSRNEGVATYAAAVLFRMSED

B1: SEQ ID NO: 181 (peptide)
peptide: KWFLICEWG
HELM: PEPTIDE1{K.W.F.L.I.C.E.W.G}$PEPTIDE1,PEPTIDE1,1:R3-7:R3$$$V2.0
SMILES: CC[C@H](C)[C@@H]1NC(=O)[C@H](CC(C)C)NC(=O)[C@H](Cc2ccccc2)NC(=O)[C@H](Cc2c[nH]c3ccccc23)NC(=O)[C@@H](N)CCCCNC(=O)CC[C@@H](C(=O)N[C@@H](Cc2c[nH]c3ccccc23)C(=O)NCC(=O)O)NC(=O)[C@H](CS)NC1=O
B2: SEQ ID NO: 180 (peptide)
peptide: KMWFLICEWG
HELM: PEPTIDE1{K.M.W.F.L.I.C.E.W.G}$PEPTIDE1,PEPTIDE1,1:R3-8:R3$$$V2.0
SMILES: CC[C@H](C)[C@@H]1NC(=O)[C@H](CC(C)C)NC(=O)[C@H](Cc2ccccc2)NC(=O)[C@H](Cc2c[nH]c3ccccc23)NC(=O)[C@H](CCSC)NC(=O)[C@@H](N)CCCCNC(=O)CC[C@@H](C(=O)N[C@@H](Cc2c[nH]c3ccccc23)C(=O)NCC(=O)O)NC(=O)[C@H](CS)NC1=O
B3: SEQ ID NO: 177 (peptide)
peptide: DMWFLICFWKG
HELM: PEPTIDE1{D.M.W.F.L.I.C.F.W.K.G}$PEPTIDE1,PEPTIDE1,1:R3-10:R3$$$V2.0
SMILES: CC[C@H](C)[C@@H]1NC(=O)[C@H](CC(C)C)NC(=O)[C@H](Cc2ccccc2)NC(=O)[C@H](Cc2c[nH]c3ccccc23)NC(=O)[C@H](CCSC)NC(=O)[C@@H](N)CC(=O)NCCCC[C@@H](C(=O)NCC(=O)O)NC(=O)[C@H](Cc2c[nH]c3ccccc23)NC(=O)[C@H](Cc2ccccc2)NC(=O)[C@H](CS)NC1=O
B4: SEQ ID NO: 178 (peptide)
peptide: DWFLICAWKG
HELM: PEPTIDE1{D.W.F.L.I.C.A.W.K.G}$PEPTIDE1,PEPTIDE1,1:R3-9:R3$$$V2.0
SMILES: CC[C@H](C)[C@@H]1NC(=O)[C@H](CC(C)C)NC(=O)[C@H](Cc2ccccc2)NC(=O)[C@H](Cc2c[nH]c3ccccc23)NC(=O)[C@@H](N)CC(=O)NCCCC[C@@H](C(=O)NCC(=O)O)NC(=O)[C@H](Cc2c[nH]c3ccccc23)NC(=O)[C@H](C)NC(=O)[C@H](CS)NC1=O
B5: SEQ ID NO: 208 (peptide)
peptide: KWFEISFWG
HELM: PEPTIDE1{K.W.F.E.I.S.F.W.G}$PEPTIDE1,PEPTIDE1,1:R3-4:R3$$$V2.0
SMILES: CC[C@H](C)[C@H](NC(=O)[C@@H]1CCC(=O)NCCCC[C@H](N)C(=O)N[C@@H](Cc2c[nH]c3ccccc23)C(=O)N[C@@H](Cc2ccccc2)C(=O)N1)C(=O)N[C@@H](CO)C(=O)N[C@@H](Cc1ccccc1)C(=O)N[C@@H](Cc1c[nH]c2ccccc12)C(=O)NCC(=O)O
B6: SEQ ID NO: 31 (peptide)
peptide: KMSRMWYLISFW
HELM: PEPTIDE1{K.M.S.R.M.W.Y.L.I.S.F.W}$PEPTIDE1,PEPTIDE1,1:R3-12:R2$$$V2.0
SMILES: CC[C@H](C)[C@@H]1NC(=O)[C@H](CC(C)C)NC(=O)[C@H](Cc2ccc(O)cc2)NC(=O)[C@H](Cc2c[nH]c3ccccc23)NC(=O)[C@H](CCSC)NC(=O)[C@H](CCCNC(=N)N)NC(=O)[C@H](CO)NC(=O)[C@H](CCSC)NC(=O)[C@@H](N)CCCCNC(=O)[C@H](Cc2c[nH]c3ccccc23)NC(=O)[C@H](Cc2ccccc2)NC(=O)[C@H](CO)NC1=O
B7: SEQ ID NO: 187 (peptide)
peptide: KWFLISAWE
HELM: PEPTIDE1{[ac].K.W.F.L.I.S.A.W.E}$PEPTIDE1,PEPTIDE1,2:R3-10:R3$$$V2.0
SMILES: CC[C@H](C)[C@@H]1NC(=O)[C@H](CC(C)C)NC(=O)[C@H](Cc2ccccc2)NC(=O)[C@H](Cc2c[nH]c3ccccc23)NC(=O)[C@@H](NC(C)=O)CCCCNC(=O)CC[C@@H](C(=O)O)NC(=O)[C@H](Cc2c[nH]c3ccccc23)NC(=O)[C@H](C)NC(=O)[C@H](CO)NC1=O
B8: SEQ ID NO: 203 (peptide)
peptide: KWALISAWD
HELM: PEPTIDE1{K.W.[Cha].L.I.S.A.W.D}$PEPTIDE1,PEPTIDE1,1:R3-9:R3$$$V2.0
SMILES: CC[C@H](C)[C@@H]1NC(=O)[C@H](CC(C)C)NC(=O)[C@H](CC2CCCCC2)NC(=O)[C@H](Cc2c[nH]c3ccccc23)NC(=O)[C@@H](N)CCCCNC(=O)C[C@@H](C(=O)O)NC(=O)[C@H](Cc2c[nH]c3ccccc23)NC(=O)[C@H](C)NC(=O)[C@H](CO)NC1=O
B9: SEQ ID NO: 206 (peptide)
peptide: KWLLISAWD
HELM: PEPTIDE1{K.W.L.L.I.S.A.W.D}$PEPTIDE1,PEPTIDE1,1:R3-9:R3$$$V2.0
SMILES: CC[C@H](C)[C@@H]1NC(=O)[C@H](CC(C)C)NC(=O)[C@H](CC(C)C)NC(=O)[C@H](Cc2c[nH]c3ccccc23)NC(=O)[C@@H](N)CCCCNC(=O)C[C@@H](C(=O)O)NC(=O)[C@H](Cc2c[nH]c3ccccc23)NC(=O)[C@H](C)NC(=O)[C@H](CO)NC1=O
B10: SEQ ID NO: 201 (peptide)
peptide: KWFLIAFWE
HELM: PEPTIDE1{K.W.F.L.I.A.F.W.E}$PEPTIDE1,PEPTIDE1,1:R3-9:R3$$$V2.0
SMILES: CC[C@H](C)[C@@H]1NC(=O)[C@H](CC(C)C)NC(=O)[C@H](Cc2ccccc2)NC(=O)[C@H](Cc2c[nH]c3ccccc23)NC(=O)[C@@H](N)CCCCNC(=O)CC[C@@H](C(=O)O)NC(=O)[C@H](Cc2c[nH]c3ccccc23)NC(=O)[C@H](Cc2ccccc2)NC(=O)[C@H](C)NC1=O
B11: SEQ ID NO: 202 (peptide)
peptide: KWFLISAWD
HELM: PEPTIDE1{K.W.F.L.I.S.A.W.D}$PEPTIDE1,PEPTIDE1,1:R3-9:R3$$$V2.0
SMILES: CC[C@H](C)[C@@H]1NC(=O)[C@H](CC(C)C)NC(=O)[C@H](Cc2ccccc2)NC(=O)[C@H](Cc2c[nH]c3ccccc23)NC(=O)[C@@H](N)CCCCNC(=O)C[C@@H](C(=O)O)NC(=O)[C@H](Cc2c[nH]c3ccccc23)NC(=O)[C@H](C)NC(=O)[C@H](CO)NC1=O
B12: SEQ ID NO: 200 (peptide)
peptide: KWFLIAFWE
HELM: PEPTIDE1{[ac].K.W.F.L.I.A.F.W.E}$PEPTIDE1,PEPTIDE1,2:R3-10:R3$$$V2.0
SMILES: CC[C@H](C)[C@@H]1NC(=O)[C@H](CC(C)C)NC(=O)[C@H](Cc2ccccc2)NC(=O)[C@H](Cc2c[nH]c3ccccc23)NC(=O)[C@@H](NC(C)=O)CCCCNC(=O)CC[C@@H](C(=O)O)NC(=O)[C@H](Cc2c[nH]c3ccccc23)NC(=O)[C@H](Cc2ccccc2)NC(=O)[C@H](C)NC1=O
B13: SEQ ID NO: 205 (peptide)
peptide: KWXLISAWD
HELM: PEPTIDE1{K.W.[CC(C)(C)[C@H](N[*:1])C(=O)[*:2]].L.I.S.A.W.D}$PEPTIDE1,PEPTIDE1,1:R3-9:R3$$$V2.0
SMILES: CC[C@H](C)[C@@H]1NC(=O)[C@H](CC(C)C)NC(=O)[C@H](C(C)(C)C)NC(=O)[C@H](Cc2c[nH]c3ccccc23)NC(=O)[C@@H](N)CCCCNC(=O)C[C@@H](C(=O)O)NC(=O)[C@H](Cc2c[nH]c3ccccc23)NC(=O)[C@H](C)NC(=O)[C@H](CO)NC1=O
B14: SEQ ID NO: 173 (peptide)
peptide: KWFLICEWG
HELM: PEPTIDE1{K.W.F.L.I.C.E.W.G}$PEPTIDE1,PEPTIDE1,1:R3-7:R3$$$V2.0
SMILES: CC[C@H](C)[C@@H]1NC(=O)[C@H](CC(C)C)NC(=O)[C@H](Cc2ccccc2)NC(=O)[C@H](Cc2c[nH]c3ccccc23)NC(=O)[C@@H](N)CCCCNC(=O)CC[C@@H](C(=O)N[C@@H](Cc2c[nH]c3ccccc23)C(=O)NCC(=O)O)NC(=O)[C@H](CS)NC1=O

Each binder was assayed against T1, β-catenin (assay: cell-based or functional assay).

Wnt Reporter EC50 | Binder
> 30 µM | B1
≤ 7.5 µM | B2
> 30 µM | H-[2Aoc]WFLICFWG-OH [SEQ ID NO: 139]
> 7.5 µM and ≤ 15 µM | B3
> 7.5 µM and ≤ 15 µM | KWFLICFWEG (cyclo-H2N-K(G*)WFLICFWE*G-COOH) [SEQ ID NO: 174]
≤ 7.5 µM | B4
> 30 µM | H-MIRMWFLICAWG-OH [SEQ ID NO: 166]
> 30 µM | N3-WESILDEHVQRVW[Pra]-NH2 (triazole N-14) [SEQ ID NO: 33]
> 7.5 µM and ≤ 15 µM | B5
> 30 µM | B6
> 7.5 µM and ≤ 15 µM | B7
> 7.5 µM and ≤ 15 µM | B8
> 7.5 µM and ≤ 15 µM | Ac-MWILISFWG-OMe [SEQ ID NO: 222]
≤ 7.5 µM | H-MAFLISFWG-OH [SEQ ID NO: 210]
> 15 µM and ≤ 22.5 µM | B9
≤ 7.5 µM | H-MWFLICAWG-OH [SEQ ID NO: 211]
> 22.5 µM and ≤ 30 µM | B10
≤ 7.5 µM | H-MWFLICFW[Sar]-OH [SEQ ID NO: 213]
> 22.5 µM and ≤ 30 µM | B11
≤ 7.5 µM | B12
> 30 µM | B13
> 30 µM | B14
